Measured values: US7459544 (GENETICS INSTITUTE, dated 2008)

Molecular target: Human CTLA4 fusion protein (CTLA4Ig) (human, UniProt P16410 36-161)
Test: solid phase competition on immobilized CTLA4-Ig; reference B7-1Ig

Chain of Human CTLA4 fusion protein (CTLA4Ig) (P16410 36-161): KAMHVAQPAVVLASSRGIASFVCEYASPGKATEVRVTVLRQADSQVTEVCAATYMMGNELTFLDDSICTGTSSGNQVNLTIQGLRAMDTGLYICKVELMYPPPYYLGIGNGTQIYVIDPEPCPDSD

- fold lower avidity than B7-1: ~2 fold
B1: human B7-2 immunoglobulin fusion protein (hB7-2Ig, full extracellular domain) (Fc fusion)
chain: APLKIQAYFNETADLPCQFANSQNQSLSELVVFWQDQENLVLNEVYLGKEKFDSVHSKYMGRTSFDSDSWTLRLHNLQIKDKGLYQCIIHHKKPTGMIRIHQMNSELSVLANFSQPEIVPISNITENVYINLTCSSIHGYPEPKKMSVLLRTKNSTIEYDGIMQKSQDNVTELYDVSISLSVSFPDVTSNMTIFCILETDKTRLLSSPFSIELEDPQPPPD
modifications: Biotinylated or 125I-labelled in some assays.
notes: Coated on plates, biotinylated or 125I-labelled depending on the assay; also called human B7.2-Ig; full-length B7-2; not shown: Junction residue Q and the hinge-CH2-CH3 of human IgG1 or IgG4 (hinge Cys to Ser, optionally CH2 mutated)
